Reference: article PMC8692065 (Cell Reports, 2021)

Tests used:
[1] = target: SARS-CoV-2 S2-mFc (SARS-CoV-2, original strain, UniProt P0DTC2); assay: flow cytometry on cells
[2] = target: SARS-CoV-2 Nucleocapsid (SARS-CoV-2, UniProt P0DTC9); assay: ELISA
[3] = target: SARS-CoV-2 RBD-mFc (SARS-CoV-2, original strain, UniProt P0DTC2); assay: flow cytometry on cells

Binder | binding result [1] | also measured
mAb-115, displayed on nPnP hybridoma cells (single-ORF linker format) (antibody, V domains shown) VH: EVQVVESGGGLVKPGGSLRLSCSVSGTTLADAWLNWVRQAPGKGLEWVGRIKSKPDVGTTEYAAPVKGRFIISRDDSGNSFFLQMTDLKPEDTAVYYCAARWEMQLWLRLFDFWGPGALVTVSS VL: EIVVTQSPATLSVSAGERANLSCRTSQSISRDLAWYQQKPGQAPRLLIYGVFSRATGIPARFSGSGSGTEFTLTISSLQSEDFAVYYCQQYNKWWTFGQGTKVEIK | binds | 
mAb-80, displayed on nPnP hybridoma cells (single-ORF linker format) (antibody, V domains shown) VH: EVQLVESGGGLVQPGGSLRLSCAASGFTFSSYWMHWVRQAPGKGLVWVSRINSDERNTRYADSVRGRFTISRDNAKNTLSLQMNSLRVDDTAVYYCARGGAAISYLYYYYGMDVWGQGTTVTVSS VL: not shown | binds | 
mAb-111, displayed on nPnP hybridoma cells (single-ORF linker format) (antibody, V domains shown) VH: DVQLLESGGGLVQPGGSRRLSCAASGFTFSNHAMSWVRQAPGKGLEWVSSISGSGGSTDYGDSVKGRFIVSRDNPRNTLYLDMNNLRTQDTAVYYCAKDRTFFTDSMLESWGEGTLVTVSS VL: DIQMTQSPSSLSASVGDRVTITCRASQTISKSLNWYQQRPGKAPKLLIYAASNLQSGFPSRFSGSGSGTDFTLTISSVQPGDFATYYCQQTYSTPVTFGQGTTLEIK | binds | 
CR3022, secreted by nPnP hybridoma cells (single-ORF linker format), supernatant (antibody, V domains shown) VH: QMQLVQSGTEVKKPGESLKISCKGSGYGFITYWIGWVRQMPGKGLEWMGIIYPGDSETRYSPSFQGQVTISADKSINTAYLQWSSLKASDTAIYYCAGGSGISTPMDVWGQGTTVTVSS VL: not shown |  | binding result [2]: no binding
mAb-76, displayed on nPnP hybridoma cells (single-ORF linker format) (antibody, V domains shown) VH: QVQLQQWGAGLLKPSETLSRTCGVYGGSFSGFYWSWIRQPPGKGLEWIGEINQSGTTSYNPSLMSRVTVSVDTSKNQFSLKLNSVTAADTAVYYCARRRSSWFEAGVHWYFDLWGRGTLVTVSS VL: DIVMTQSPLSLAVTPGEPASISCRSSQSLLHSNGYNYLDWYLQKPGQSPQVLIYLGSNRASGVPDRFSGSGSGTDYTLKISRVEAEDAGVYYCMQALQTPTFGRGTKLEIK |  | binding result [3]: binds
mAb-56, displayed on nPnP hybridoma cells (single-ORF linker format) (antibody, V domains shown) VH: EVQLVESGGGLIQPGGSMRLSCAASGFSVGTTYMSWVRQAPGKGLEWVSVVFKGHDTYYRKSVKGRFTISRDSSKNTLYLQMSDLRAEDSAVYFCTNMVLTYDSGWYWLDYWGQGIRVTVSS VL: DIQMTQSPSPLSAFVGDMVTITCRASQSINNFLNWYQQKPGKAPRLLIYGASTLETGVPTRFSGSGSGTDFTFTISSLQPEDIATYYCQQYDNLPLTFGGGTKVEIK |  | binding result [3]: binds
mAb-78, displayed on nPnP hybridoma cells (single-ORF linker format) (antibody, V domains shown) VH: QVQLVESGGGVVQPGRSLTLSCAVSGFSFNNYGMHWVRQAPGKGLEWVSFISYEGSKRYYMDSLKGRFTISRDSSKNEVYLQMNRLTPEDTAVYYCAKSRAYFHFSAGRGVFDYWGRGALVTVSS VL: DMQMTQSPSSLSASVGDRVTITCQASQDIGTYLNWYRHKPGEAPKLLIYHASNLETGVPSRFSGSGSGTDFSFTISSLQPEDIGTYYCQQYDDLPVFAFGPGTKVDLK | binds | 
